The text below walks through data of patent US20200071671A1.

This assay deals with hCCNT1-C261Y (human) (UniProt O60563). Nature of the assay: cell-based or functional assay.

Bounds are passed on as bounds.

Sequence of UniProt O60563 (O60563 whole entry C261Y): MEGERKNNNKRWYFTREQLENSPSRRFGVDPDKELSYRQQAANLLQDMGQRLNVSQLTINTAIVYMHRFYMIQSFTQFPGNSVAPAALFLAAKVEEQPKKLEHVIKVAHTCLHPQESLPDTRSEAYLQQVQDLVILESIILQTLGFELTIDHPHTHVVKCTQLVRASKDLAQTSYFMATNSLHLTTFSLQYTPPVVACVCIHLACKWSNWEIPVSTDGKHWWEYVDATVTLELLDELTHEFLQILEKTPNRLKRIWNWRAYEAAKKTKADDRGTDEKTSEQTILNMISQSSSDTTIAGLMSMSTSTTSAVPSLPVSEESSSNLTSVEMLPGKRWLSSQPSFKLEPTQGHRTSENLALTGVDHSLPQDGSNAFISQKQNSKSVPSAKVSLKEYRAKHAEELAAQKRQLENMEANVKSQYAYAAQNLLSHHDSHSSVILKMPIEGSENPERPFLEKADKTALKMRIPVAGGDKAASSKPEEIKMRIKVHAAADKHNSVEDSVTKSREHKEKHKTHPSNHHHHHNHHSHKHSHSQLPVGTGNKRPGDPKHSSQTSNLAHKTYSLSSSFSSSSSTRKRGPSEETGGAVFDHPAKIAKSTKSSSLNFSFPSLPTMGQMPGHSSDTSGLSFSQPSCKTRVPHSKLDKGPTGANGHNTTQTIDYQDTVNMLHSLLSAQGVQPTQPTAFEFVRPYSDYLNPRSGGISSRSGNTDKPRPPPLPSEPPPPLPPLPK

For the substance HIV-1 Tat protein, the fold decrease in Tat-dependent GFP expression, dual-colour single-round HIV-1 reporter virus, hCCNT1-C261Y Jurkat cells against wild-type parental cells is > 16 fold.
